Measurements published in publication PMC2064205 (The Journal of Cell Biology, 2007).
Blank lines part the entries; values can stand above or below the binder they belong to.

Assays:
HA3-San = target: T1, HA3-San (human, UniProt Q9GZZ1 1-169); assay: co-IP
T1 sequence: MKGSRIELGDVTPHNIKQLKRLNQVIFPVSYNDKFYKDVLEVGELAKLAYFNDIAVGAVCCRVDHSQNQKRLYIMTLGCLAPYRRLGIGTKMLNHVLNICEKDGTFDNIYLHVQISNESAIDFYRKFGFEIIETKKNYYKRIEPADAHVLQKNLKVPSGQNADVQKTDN

HA3-Ard1 = target: T2, HA3-Ard1 (human, UniProt P41227 1-235); assay: co-IP
T2 sequence: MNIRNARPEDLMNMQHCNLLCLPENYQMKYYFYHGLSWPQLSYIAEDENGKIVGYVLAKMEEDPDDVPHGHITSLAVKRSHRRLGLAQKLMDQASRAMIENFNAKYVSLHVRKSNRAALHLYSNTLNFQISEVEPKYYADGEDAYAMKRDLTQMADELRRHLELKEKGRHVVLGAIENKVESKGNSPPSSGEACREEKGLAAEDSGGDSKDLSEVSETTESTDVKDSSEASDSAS

- percent of input pulled down (HA3-San): > 10 % of input
B1: NatH (endogenous) (natural protein)
chain: MPAVSLPPKENALFKRILRCYEHKQYRNGLKFCKQILSNPKFAEHGETLAMKGLTLNCLGKKEEAYELVRRGLRNDLKSHVCWHVYGLLQRSDKKYDEAIKCYRNALKWDKDNLQILRDLSLLQIQMRDLEGYRETRYQLLQLRPAQRASWIGYAIAYHLLEDYEMAAKILEEFRKTQQTSPDKVDYEYSELLLYQNQVLREAGLYREALEHLCTYEKQICDKLAVEETKGELLLQLCRLEDAADVYRGLQERNPENWAYYKGLEKALKPANMLERLKIYEEAWTKYPRGLVPRRLPLNFLSGEKFKECLDKFLRMNFSKGCPPVFNTLRSLYKDKEKVAIIEELVVGYETSLKSCRLFNPNDDGKEEPPTTLLWVQYYLAQHYDKIGQPSIALEYINTAIESTPTLIELFLVKAKIYKHAGNIKEAARWMDEAQALDTADRFINSKCAKYMLKANLIKEAEEMCSKFTREGTSAVENLNEMQCMWFQTECAQAYKAMNKFGEALKKCHEIERHFIEITDDQFDFHTYCMRKITLRSYVDLLKLEDVLRQHPFYFKAARIAIEIYLKLHDNPLTDENKEHEADTANMSDKELKKLRNKQRRAQKKAQIEEEKKNAEKEKQQRNQKKKKDDDDEEIGGPKEELIPEKLAKVETPLEEAIKFLTPLKNLVKNKIETHLFAFEIYFRKEKFLLMLQSVKRAFAIDSSHPWLHECMIRLFNTAVCESKDLSDTVRTVLKQEMNRLFGATNPKNFNETFLKRNSDSLPHRLSAAKMVYYLDPSSQKRAIELATTLDESLTNRNLQTCMEVLEALYDGSLGDCKEAAEIYRANCHKLFPYALAFMPPGYEEDMKITVNGDSSAEAEELANEI

- percent of input pulled down (HA3-Ard1): < 10 % of input
B2: San (endogenous) (natural protein)
chain: T1 sequence

- percent of input pulled down (HA3-San): > 10 % of input
B3: Ard1 (endogenous) (natural protein)
chain: T2 sequence
